Our source for the stoichiometry N values is article PMC9523049.

The assay has as its target Mec1-Ddc2 heterodimer (yeast (endogenous in cultured yeast cells)) (UniProt P38111). The experiment in a line: cryo-EM structure; Mec1-Ddc2 complex endogenously purified from yeast cells treated with HU (HU-Dimer1, HU-Dimer2) or MMS (MMS-Dimer).

On to “Mec1-Ddc2 heterodimer, P38111 1-2368; Q04377 1-747”, for which the stoichiometry N was determined as 2.

What is called stoichiometry N is a count of units in the complex or per binding partner.
